B1: AURKA-Venus WT [human] / TPX2 [human (endogenous in U2OS)] (parent complex)
chain 1: MDRSKENCISGPVKATAPVGGPKRVLVTQQFPCQNPLPVNSGQAQRVLCPSNSSQRIPLQAQKLVSSHKPVQNQKQKQLQATSVPHPVSRPLNNTQKSKQPLPSAPENNPEEELASKQKNEESKKRQWALEDFEIGRPLGKGKFGNVYLAREKQSKFILALKVLFKAQLEKAGVEHQLRREVEIQSHLRHPNILRLYGYFHDATRVYLILEYAPLGTVYRELQKLSKFDEQRTATYITELANALSYCHSKRVIHRDIKPENLLLGSAGELKIADFGWSVHAPSSRRTTLCGTLDYLPPEMIEGRMHDEKVDLWSLGVLCYEFLVGKPPFEANTYQETYKRISRVEFTFPDFVTEGARDLISRLLKHNPSQRPMLREVLEHPWITANSSKPSNCQNKESASKQS
chain 2: MSQVKSSYSYDAPSDFINFSSLDDEGDTQNIDSWFEEKANLENKLLGKNGTGGLFQGKTPLRKANLQQAIVTPLKPVDNTYYKEAEKENLVEQSIPSNACSSLEVEAAISRKTPAQPQRRSLRLSAQKDLEQKEKHHVKMKAKRCATPVIIDEILPSKKMKVSNNKKKPEEEGSAHQDTAEKNASSPEKAKGRHTVPCMPPAKQKFLKSTEEQELEKSMKMQQEVVEMRKKNEEFKKLALAGIGQPVKKSVSQVTKSVDFHFRTDERIKQHPKNQEEYKEVNFTSELRKHPSSPARVTKGCTIVKPFNLSQGKKRTFDETVSTYVPLAQQVEDFHKRTPNRYHLRSKKDDINLLPSKSSVTKICRDPQTPVLQTKHRARAVTCKSTAELEAEELEKLQQYKFKARELDPRILEGGPILPKKPPVKPPTEPIGFDLEIEKRIQERESKKKTEDEHFEFHSRPCPTKILEDVVGVPEKKVLPITVPKSPAFALKNRIRMPTKEDEEEDEPVVIKAQPVPHYGVPFKPQIPEARTVEICPFSFDSRDKERQLQKEKKIKELQKGEVPKFKALPLPHFDTINLPEKKVKNVTQIEPFCLETDRRGALKAQTWKHQLEEELRQQKEAACFKARPNTVISQEPFVPKKEKKSVAEGLSGSLVQEPFQLATEKRAKERQELEKRMAEVEAQKAQQLEEARLQEEEQKKEELARLRRELVHKANPIRKYQGLEIKSSDQPLTVPVSPKFSTRFHC

Variants of: B1
Test: in situ proximity ligation assay (isPLA); mitotic U2OS cells, endogenous TPX2, n ≥ 10 cells; read off a plot

Compared with chain 1 MDRSKENCISGPVKATAPVGGPKRVLVTQQFPCQNPLPVNSGQAQRVLCPSNSSQRIPLQAQKLVSSHKPVQNQKQKQLQATSVPHPVSRPLNNTQKSKQPLPSAPENNPEEELASKQKNEESKKRQWALEDFEIGRPLGKGKFGNVYLAREKQSKFILALKVLFKAQLEKAGVEHQLRREVEIQSHLRHPNILRLYGYFHDATRVYLILEYAPLGTVYRELQKLSKFDEQRTATYITELANALSYCHSKRVIHRDIKPENLLLGSAGELKIADFGWSVHAPSSRRTTLCGTLDYLPPEMIEGRMHDEKVDLWSLGVLCYEFLVGKPPFEANTYQETYKRISRVEFTFPDFVTEGARDLISRLLKHNPSQRPMIREVLEHPWITANSSKPSNCQNKESASKQS [chain 1 L374I], chain 1 MDRSKENCISGPVKATAPVGGPKRVLVTQQFPCQNPLPVNSGQAQRVLCPSNSSQRIPLQAQKLVSSHKPVQNQKQKQLQATSVPHPVSRPLNNTQKSKQPLPSAPENNPEEELASKQKNEESKKRQWALEDFEIGRPLGKGKFGNVYLAREKQSKFILALKVLFKAQLEKAGVEHQLRREVEIQSHLRHPNILRLYGYFHDATRVYLILEYAPLGTVYRELQKLSKFDEQRTATYITELANALSYCHSKRVIHRDIKPENLLLGSAGELKIADFGWSVHAPSSRRTTLCGTLDYLPPEMIEGRMHDEKVDLWSLGVLCYEFLVGKPPFEANTYQETYKRISRVEFTFPDFVTEGARDLISRLLKHNPSQAPMAREVLEHPWITANSSKPSNCQNKESASKQS [chain 1 R371A, chain 1 L374A] is lower in response: about 3.7 AU for the first, about 1.3 AU for the second.

Compared with chain 1 MDRSKENCISGPVKATAPVGGPKRVLVTQQFPCQNPLPVNSGQAQRVLCPSNSSQRIPLQAQKLVSSHKPVQNQKQKQLQATSVPHPVSRPLNNTQKSKQPLPSAPENNPEEELASKQKNEESKKRQWALEDFEIGRPLGKGKFGNVYLAREKQRKFILALKVLFKAQLEKAGVEHQLRREVEIQSHLRHPNILRLYGYFHDATRVYLILEYAPLGTVYRELQKLSKFDEQRTATYITELANALSYCHSKRVIHRDIKPENLLLGSAGELKIADFGWSVHAPSSRRTTLCGTLDYLPPEMIEGRMHDEKVDLWSLGVLCYEFLVGKPPFEANTYQETYKRISRVEFTFPDFVTEGARDLISRLLKHNPSQRPMLREVLEHPWITANSSKPSNCQNKESASKQS [chain 1 S155R], chain 1 MDRSKENCISGPVKATAPVGGPKRVLVTQQFPCQNPLPVNSGQAQRVLCPSNSSQRIPLQAQKLVSSHKPVQNQKQKQLQATSVPHPVSRPLNNTQKSKQPLPSAPENNPEEELASKQKNEESKKRQWALEDFEIGRPLGKGKFGNVYLAREKQSKFILALKVLFKAQLEKAGVEHQLRREVEIQSHLRHPNILRLYGYFHDATRVYLILEYAPLGTVYRELQKLSKFDEQRTATYITELANALSYCHSKRVIHRDIKPENLLLGSAGELKIADFGWSVHAPSSRRTTLCGTLDYLPPEMIEGRMHDEKVDLWSLGVLCYEFLVGKPPFEANTYQETYKRISRVEFTFPDFVTEGARDLISRLLKHNPSQAPMLREVLEHPWITANSSKPSNCQNKESASKQS [chain 1 R371A] is higher in response: about 2.6 AU for the first, about 3 AU for the second.
